Columns and labels:
[1] = system: TrkB (TrkB-Flag); experiment: Co-IP of MDGA2 and its truncations with TrkB-Flag in HEK293T cells; assay type: binding, human; conditions: HEK293T cells co-transfected with TrkB-Flag and GFP-tagged MDGA2 constructs
Protocol: Fig 3 MDGA2 interacts with TrkB and suppresses TrkB activity. (A) Primary hippocampal neurons derived from Mdga2^ +/− (Het) mice and their wild-type (WT) littermates at DIV 7 were treated with different doses of BDNF for 30 min. Equal amounts of protein lysates were subjected to immunoprecipitation (IP) with an anti-TrkB antibody, followed by immunoblotting with an anti-phosphotyrosine (pTyr) antibody or the anti-TrkB antibody. The pTyr levels were quantified by densitometry, normalized to total TrkB levels, and then compared to those of WT controls. n = 3 per group. (B) WT mouse brain lysates were subjected to IP with an anti-MDGA2 antibody and a control IgG, and immunoblotted (IB) for the components indicated. mBDNF, mature BDNF; ImBDNF, immature BDNF. (C) Hippocampal neurons from WT mice at DIV 7 were immunostained with antibodies against MDGA2 (red) and TrkB (green), and then counter-stained with DAPI (blue). Images were acquired by a confocal microscope. Scale bar: 10 μm. (D) Surface plasmon resonance (SPR) analysis of the binding between recombinant MDGA2 protein and recombinant TrkB protein. TrkB was immobilized on a Biacore CM5 chip and tested for its binding with MDGA2 at the concentrations indicated. (E) Computer simulation of the binding mode of TrkB and MDGA2. The predicted binding domain of TrkB (the d5 domain) is highlighted by a red square and labeled in brown. The predicted binding domain of MDGA2 (the MAM domain) is highlighted by a red square and labeled in yellow. […] Immunoprecipitated TrkB levels were quantified by densitometry, normalized to input levels, and compared to respective controls (set to one arbitrary units). n = 3 per group. […] Levels of phosphorylated proteins were quantified by densitometry, normalized to respective total protein levels and compared to controls (set to one arbitrary units). n = 6 per group. […] P-values were determined by two-tailed unpaired Student t-test in (A) and one-way ANOVA with Tukey’s multiple comparisons test in (H, I, J). *p < 0.05, **p < 0.01, ***p < 0.001, ns: not significant. […]

[2] = system: hippocampal proteins; experiment: DIA quantification proteomics, hippocampus of Mdga2+/- vs WT mice; design: species or system mouse; conditions: S3 Table, downregulated DEPs
Outline: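 Hippocampi from 1.5–2-month-old male Mdga2+/− mice and WT littermates; 100 μg protein trypsin-digested, peptides high-pH fractionated. DDA-built spectral library, DIA by nano-LC–MS/MS with Spectronaut and mProphet QC. DEPs called at fold change >1.1 and p <0.05.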

Row | Molecule | interaction with TrkB (Co-IP) [1] | log2FC ([2]; Mdga2+/- vs WT mouse hippocampus (HET-HIP-VS-WT-HIP), SE, pvalue and adj_pvalue in own columns c3-c5) | Class ([2]; regulation class of the protein, HET-HIP-VS-WT-HIP)
1 | MDGA2-ΔM1: MDGA2 lacking the N-terminal region (aa 746–833) of MAM domain (protein, left off: GFP, end not stated, kept, MDGA2 lacking the N-terminal region (aa 746–833) of MAM domain) PPTVRIVHSGLACNIEEERYSERVYTIREGETLELTCLVTGHPRPQIRWTKTAGSASDRFQDSSVFNETLRITNIQRHQGGRYYCKAENGLGSPAIKSIRVDVYYLDDPVVTVHQSIGEAKEQFYYERTVFLRCVANSNPPVRYSWRRGQEVLLQGSDKGVEIYEPFFTQGETKILKLKNLRPQDYANYSCIASVRNVCNIPDKMVSFRLSNKTASPSIKLLVDDPIVVNPGEAITLVCVTTGGEPAPSLTWVRSFGTLPEKTVLNGGTLTIPAITSDDAGTYSCIANNNVGNPAKKSTNIIVRALKKGRFWITPDPYHKDDNIQIGREVKISCQVEAVPSEELTFSWFKNGRPLRSSERMVITQTDPDVSPGTTNLDIIDLKFTDFGTYTCVASLKGGGISDISIDVNISSSTVPPNLTVPQEKSPLVTREGDTIELQCQVTGKPKPIILWSRADKEVAMPDGSMQMESYDGTLRIVNVSREMSGMYRCQTSQYNGFNVKPREALVQLIVQYPPAVEPAFLEIRQGQDRSVTMSCRVLRAYPIRVLTYEWRLGNKLLRTGQFDSQEYTEYAVKSLSNENYGVYNCSIINEAGAGRCSFLVTGKAYAPEFYYDTYNPVWQNRHRVYSYSLQWTQMNPDAVDRIVAYRLGIRQAGQQRWWEQEIKINGNIQKGELITYNLTELIKPEAYEVRLTPLTKFGEGDSTIRVIKYSAPVNPHLREAYCFSFFYHMYGQHIGVLNVYLRLKGQTTIENPLWSSSGNKGQRWNEAHVNIYPITSFQLIFEGIRGPGIEGDIAIDDVSIAEGECAKQDLATKNSVD | abolished the interaction between MDGA2 and TrkB |  | 
2 | MDGA2-ΔM2: MDGA2 lacking the C-terminal region (aa 834–921) of MAM domain (protein, left off: GFP, end not stated, kept, MDGA2 lacking the C-terminal region (aa 834–921) of MAM domain) PPTVRIVHSGLACNIEEERYSERVYTIREGETLELTCLVTGHPRPQIRWTKTAGSASDRFQDSSVFNETLRITNIQRHQGGRYYCKAENGLGSPAIKSIRVDVYYLDDPVVTVHQSIGEAKEQFYYERTVFLRCVANSNPPVRYSWRRGQEVLLQGSDKGVEIYEPFFTQGETKILKLKNLRPQDYANYSCIASVRNVCNIPDKMVSFRLSNKTASPSIKLLVDDPIVVNPGEAITLVCVTTGGEPAPSLTWVRSFGTLPEKTVLNGGTLTIPAITSDDAGTYSCIANNNVGNPAKKSTNIIVRALKKGRFWITPDPYHKDDNIQIGREVKISCQVEAVPSEELTFSWFKNGRPLRSSERMVITQTDPDVSPGTTNLDIIDLKFTDFGTYTCVASLKGGGISDISIDVNISSSTVPPNLTVPQEKSPLVTREGDTIELQCQVTGKPKPIILWSRADKEVAMPDGSMQMESYDGTLRIVNVSREMSGMYRCQTSQYNGFNVKPREALVQLIVQYPPAVEPAFLEIRQGQDRSVTMSCRVLRAYPIRVLTYEWRLGNKLLRTGQFDSQEYTEYAVKSLSNENYGVYNCSIINEAGAGRCSFLVTGKAYAPEFYYDTYNPVWQNRHRVYSYSLQWTQMNPDAVDRIVAYRLGIRQAGQQRWWEQEIKINGNIQKGELITYNLTELIKPEAYEVRLTPLTKFGEGDSTIRVIKYSAPVNPHLREFHCGFEDGNICLFTQDDTDNFDWTKQSTATRNTKYTPNTGPNADRSGSKEGFYMYIETSRPRLEGEKARLLSPVFSIAPKNPYGPTNTQDLATKNSVD | not M2 abolished the interaction |  | 
3 | sp¦P97333¦NRP1_MOUSE (protein, UniProt P97333 22-923, looked up) Neuropilin-1: FRSDKCGGTIKIENPGYLTSPGYPHSYHPSEKCEWLIQAPEPYQRIMINFNPHFDLEDRDCKYDYVEVIDGENEGGRLWGKFCGKIAPSPVVSSGPFLFIKFVSDYETHGAGFSIRYEIFKRGPECSQNYTAPTGVIKSPGFPEKYPNSLECTYIIFAPKMSEIILEFESFDLEQDSNPPGGMFCRYDRLEIWDGFPEVGPHIGRYCGQKTPGRIRSSSGVLSMVFYTDSAIAKEGFSANYSVLQSSISEDFKCMEALGMESGEIHSDQITASSQYGTNWSVERSRLNYPENGWTPGEDSYKEWIQVDLGLLRFVTAVGTQGAISKETKKKYYVKTYRVDISSNGEDWISLKEGNKAIIFQGNTNPTDVVLGVFSKPLITRFVRIKPVSWETGISMRFEVYGCKITDYPCSGMLGMVSGLISDSQITASNQADRNWMPENIRLVTSRTGWALPPSPHPYTNEWLQVDLGDEKIVRGVIIQGGKHRENKVFMRKFKIAYSNNGSDWKTIMDDSKRKAKSFEGNNNYDTPELRTFSPLSTRFIRIYPERATHSGLGLRMELLGCEVEAPTAGPTTPNGNPVDECDDDQANCHSGTGDDFQLTGGTTVLATEKPTIIDSTIQSEFPTYGFNCEFGWGSHKTFCHWEHDSHAQLRWSVLTSKTGPIQDHTGDGNFIYSQADENQKGKVARLVSPVVYSQSSAHCMTFWYHMSGSHVGTLRVKLRYQKPEEYDQLVWMVVGHQGDHWKEGRVLLHKSLKLYQVIFEGEIGKGNLGGIAVDDISINNHISQEDCAKPTDLDKKNTEIKIDETGSTPGYEGEGEGDKNISRKPGNVLKTLDPILITIIAMSALGVLLGAVCGVVLYCACWHNGMSERNLSALENYNFELVDGVKLKKDKLNPQSNYSEA |  | -3.13 | Down

Reference: article PMC11960969, “Mdga2 deficiency leads to an aberrant activation of BDNF/TrkB signaling that underlies autism-relevant synaptic and behavioral changes in mice” (PLOS Biology, 2025)
